# In the nanobody polyreactivity screen of Harvey et al. (2022):
# Experiment: yeast display, Sf9 membrane polyspecificity reagent, FACS + sequencing; frameworks hold sequencing errors
# Method in brief: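 Synthetic nanobody libraries on Saccharomyces cerevisiae BJ5465 were galactose-induced for 36–48 hours, stained 1 hour at 4 °C with 10% biotinylated, detergent-solubilized Sf9 membrane reagent and enriched on streptavidin microbeads. FACS then separated cells into low and high (top ~1%) gates by anti-HA (expression) and streptavidin (reagent binding) fluorescence. Genes were colony-PCR amplified, MiSeq 2 × 250 sequenced and CDR-length filtered. A clone's polyreactivity label is that of its gate of origin.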
row,Sequence,polyreactivity (PSR sort gate)
1,QVQLVESVGGLDQAGGSLRLSCAASGRIFRYYAMGWDRQAPGKERELVAAITSDGRTYYADSVKGRFTISRDNAKNTVYLQMNSLKPEDTAVYYCAADHHSYRYGGYYYWGQGTQVTVSS,low polyreactivity
2,QVQLVESVGGLFHEGGSLRLSSAASGFIFWANAMGCYRQAPGKERELVAAIRNSGGRTYYADSVKGRFTISRDKAKNTVYLQMNSLKPEDTAVYFCATDTGYPYSYDLFDSYYWGQGTQLTVSS,low polyreactivity
3,QVQLVESVGGLFQAGGSLRLSCDASGFTFTAYAMGWYIQAPGKERELVAAINWSGSRTYYADSVKGRFTISRDNAKNTVYLQMNSLKPEDTAVYYCNTATSKSSYRHYDYWGQGTQVTVSS,high polyreactivity
4,QVQLVESVGGLVKAGGRLRLSCAASGRIFPPNALACSRQAPGKERELVADNNFSGDSTYYADSVKGRFTISRDNAKNTVYLQMNSLKPEDTSVYYCAAVISLVSYYYWGQATQVTVSS,low polyreactivity
5,QVQLVESVGGLVKAGVSLRLSCAASGYIFPYYAMGWYRQAPGKERELVAAISRSGGGTYYADSVKGRFTISRYNAKNTVYFQMKSLKPVVTAVYYFNRRSGQVDVYDYWGQGTKVTVSS,low polyreactivity
6,QVQLVESVGGLVQAGGILRLSSAASGSTFDINEKGWYRQAPGKERELVAAITWSGDSTYYADSVKGRFTISRDNAKNTVYLQMNSLKPVDTAVYYCSAYYPYSYYEDASYYYWGQGTQVTLSS,low polyreactivity
7,QVQLVESVGGLVQAGGRLRLSCAASGSIFLYNAMGWYRQAPGKERELVAVINGRGGTYYADSVKGRFTISRDNAKNTVYLQMNSLKPEDTAVYYCATGYPPSAGYDSVRFEDRDSWGQGTQVTVSS,low polyreactivity
8,QVQLVESVGGLVQAGGRLRLSCAASGSIFSIYGMGWYRQAPGKERELVAVISKSGTRTFYADSVKGRFTISRDNAKNTVYLQMNSLKPEDTAVYYCNARIFFRRNVTQVRMDYWGQGTQVTVSS,high polyreactivity
9,QVQLVESVGGLVQAGGRLRLSCAASGSIFWFNAMGWYRQAPGKEREFVASISRSGGTTYYADSVKGRFTISRDNAKNTVYLQMNSLKPEDTAVYYCNARAYGNGLGTGYFGNHRYDYWGQGTQVTVSS,low polyreactivity
10,QVQLVESVGGLVQAGGRLRLSCAASGSTFAFNAMGWSRQAPGKEREFVAVISYRTDNTYYADSVKGRFTISRDNAKNTVYLQMNSLKPEDTAVYYCAAASSYSKKPYYSYGYWGQGTQVTVSS,high polyreactivity
11,QVQLVESVGGLVQAGGSHRLSGAASGRTLYRYGLGWYRQAPGKDRELVAVIDRGGSTNYADSVKGRFTISRDNAKNTVYLQMNSLKPEDTAVYYCAKRWTAREAWRKGMGYWGQGTKVTVSS,high polyreactivity
12,QVQLVESVGGLVQAGGSLPLSCAASGSTFVDYDMGWYRQAPGKERELVAAITYSGARTYYADSVKGRFTISRDNAKNTVYLQMNSLTPEDSAVYYGNADQRTASDQLEFDYWGQGTQVTVSS,low polyreactivity
13,QVQLVESVGGLVQAGGSLRFSCAASGRIFKWYAMGWYRQAPGKEREFVAGIRWGGGRTHYADSVKGRFTISRDNAKNTVYLQMNSLKPEDTAVYYCAADNRGNTVYYRNYYWGQGTQVTVSS,high polyreactivity
14,QVQLVESVGGLVQAGGSLRLICAASGIIFKFNAMGWYRQAPGKEREFVAAIRWRGGSTYYADSVKGRFTISRDNAKNTVYLQMNSLKPEDTAVYYCAATYRTGYYYWGQGTQVTVSS,high polyreactivity
15,QVQLVESVGGLVQAGGSLRLSCAASGFIFSWYAMGWYRQAPGKERELVAAINSGGRTSYADSVKGRFTISRDNAKNTVYLQMNSLKPEDTAVYYCAAPVYYYNRARYSYDYWGQGTQVTVSS,high polyreactivity
16,QVQLVESVGGLVQAGGSLRLSCAASGFIFYRYAMGWYRKAPGKEWEFVAAINYSATSTYYADSVKGRFTISRDNAKNTVYLQMNSLKPEDTAVYYCAAKRVRRLSYETKYDYWGQGTQVTVSS,high polyreactivity

row,Sequence,polyreactivity (PSR sort gate)
1,QVQLVESVGGLVQAGGSLRLSCAASGFILGYNAMGWYRQAPGKERELVADITFSGGGTNYADSVKGRFTISRDNAKNTVYLQMNSLKPEDTAVYDCNAAAFSQLRVRYDYWGQGTQVTVSS,low polyreactivity
2,QVQLVESVGGLVQAGGSLRLSCAASGFTFGYYAMGWYRQAPGKERELVASISRSGGSTNYADSVKGRFTISRDNAKNTVYLQMNSLKPEDTAVYYCAKPLWDPKYDYWGQGTQVTVSS,high polyreactivity
3,QVQLVESVGGLVQAGGSLRLSCAASGFTFNGYAMGWYRQAPGKERELVAAINISGGSTYYADSVKGRFTISRDNAKNTVYLQMNSLKPEDTAVYYCAARLWGIRYSYRYGYWGQGTQVTVSS,high polyreactivity
4,QVQLVESVGGLVQAGGSLRLSCAASGFTFRVNAMGWYIQAPGKERELVAAISSGGSTNYADTVKGRFTISRDNAKNTVYLQMNSLKPEDTAVYYCAKRFKYIYYWGQGTQVTVSS,high polyreactivity
5,QVQLVESVGGLVQAGGSLRLSCAASGFTSWDNDMGWYRQAPGKERELVAAISRGGSTNYADSVKGRFTISRDNAKNTVYLQMNSLKPEDTAVYYCATAAVTPVWYDYWGQGTQVTVSS,low polyreactivity
6,QVQLVESVGGLVQAGGSLRLSCAASGGIFNGYAMGWYRQAPGKERELVAAITASGARTYYADSVKGRFTISRDNAKNTVYLQMNSLKPEDTAVYYCAKGFSYPGGPYYYFLGYGYWGQGTQVTVSS,high polyreactivity
7,QVQLVESVGGLVQAGGSLRLSCAASGIILLYYALGWYRQAPGKERELVAAITTSGGRTYYADSVKGRFTISRDNAKNTVYLQMNSLKPEDTAVYYCAASTQGTYYPYKRYDYWGQGTQVTVSS,high polyreactivity
8,QVQLVESVGGLVQAGGSLRLSCAASGITFSTNAMGWYRQAPGKERELVAAITSVTSTYYADSVKGRFTISRDNAKNTVYLQMNSLKPEDTAVYYCASRLSRWPYFYEYNYWGQGTQVTVSS,low polyreactivity
9,QVQLVESVGGLVQAGGSLRLSCAASGITFTVYAMGWYRQAPGKERELVAAISSSGSTTYADSVKGRFTISRDNAKNTVYLQMNSLKPEDTAVYYCAAYSDYYLDQWYGYWGQGTQVTVSS,low polyreactivity
10,QVQLVESVGGLVQAGGSLRLSCAASGITFYDNAMGWYRQAPGKERELVAGISYSGGRTYYADSVKGRFTISRDNAKNTVYLQMNSLKPEDTAVYYCNARFGKYRSRQGYYYWGQGTQVTVSS,high polyreactivity
11,QVQLVESVGGLVQAGGSLRLSCAASGITSYRYTKGWYRQAPGKARELVAAITISGGRTYYGDSVKGRFTISRDNAKNTVYLQLNSLKPEDTAVYYCAAGWRSGFDYWGQGTQVTVSS,high polyreactivity
12,QVQLVESVGGLVQAGGSLRLSCAASGLNFSYYAMGWYRQAPGKERELVAAIDWISGSTYYADSVKGRFTISRDNAKNTVYLQMNSLKPEDTAVYYCAAYGSFWYAGFGYWGQGTQVTVSS,low polyreactivity
13,QVQLVESVGGLVQAGGSLRLSCAASGLTFWYYAMGCYRQAPGKERELVARITRSGVGTYYADSVKGRFTISRDNAKNTVYLQMNSLKAEDTAVYYCNARYQYSWVRYGYDYWGQGTQVTVSS,high polyreactivity
14,QVQLVESVGGLVQAGGSLRLSCAASGNIFYSYDMGWYRQAPGKERELVATISYRGTSTNYADSVKGRFTISRDNAKNTVYLQMNSLKPEDTAVYYCASDRGSHFARGSAYDYWGQGTQVTVSS,low polyreactivity
15,QVQLVESVGGLVQAGGSLRLSCAASGNTFRYNTMGWYRQAPGKERELVAVITRRGSSTYYADSVKGRFTISRDNAKNTVYLQMNSLKPEDTAVYYCAAGYGRYGYVYSGYGKWEDYWGQGTQVTVSS,high polyreactivity
